Earlier results in patent publication US10190113B2, “Methods and compositions for segregating target nucleic acid from mixed nucleic acid samples” (FLIR DETECTION, INC., priority 2011, dated 2019).
Residue numbers refer to the chain shown, from its start. Names may count otherwise. “And” between values parts separate entries of the source, which are not always exact repeats. Equal entries are not always repeated.

B1: BamHI T153I: BamHI restriction enzyme with mutation T153I (listed twice) (protein, UniProt P23940 1-213, looked up, variant T153I)
Type II restriction enzyme …: MEVEKEFITDEAKELLSKDKLIQQAYNEVKTSICSPIWPATSKTFTINNTEKNCNGVVPIKELCYTLLEDTYNWYREKPLDILKLEKKKGGPIDVYKEFIENSELKRVGMEFETGNISSAHRSMNKLLLGLKHGEIDLAIILMPIKQLAYYLIDRVTNFEELEPYFELTEGQPFIFIGFNAEAYNSNVPLIPKGSDGMSKRSIKKWKDKVENK
B2: BamHI G130R: BamHI restriction enzyme with mutation G130R (protein, UniProt P23940 1-213, looked up, variant G130R)
Type II restriction enzyme …: B1 Type II restriction enzyme … with G130R, I153T
B3: BamHI G194D: BamHI restriction enzyme with mutation G194D (protein, UniProt P23940 1-213, looked up, variant G194D)
Type II restriction enzyme …: B1 Type II restriction enzyme … with I153T, G194D
B4: BamHI D94N: BamHI restriction enzyme with mutation D94N (protein, UniProt P23940 1-213, looked up, variant D94N)
Type II restriction enzyme …: B1 Type II restriction enzyme … with D94N, I153T
B5: BamHI T114I: BamHI restriction enzyme with mutation T114I (protein, UniProt P23940 1-213, looked up, variant T114I)
Type II restriction enzyme …: B1 Type II restriction enzyme … with T114I, I153T
B6: BamHI T157I: BamHI restriction enzyme with mutation T157I (protein, UniProt P23940 1-213, looked up, variant T157I)
Type II restriction enzyme …: B1 Type II restriction enzyme … with I153T, T157I
B7: BamHI E135K: BamHI restriction enzyme with mutation E135K (protein, UniProt P23940 1-213, looked up, variant E135K)
Type II restriction enzyme …: B1 Type II restriction enzyme … with E135K, I153T
B8: BsoBI I95M: BsoBI restriction enzyme with mutation I95M (protein, UniProt P70985 2-323, looked up, variant I95M)
Type II restriction enzyme …: NTQKPFENHLKSVDDLKTTYEEYRAGFIAFALEKNKRSTPYIERARALKVAASVAKTPKDLLYLEDIQDALLYASGISDKAKKFLTEDDKKESMNNLIENFLEPAGEEFIDELIFRYLLFQGDSLGGTMRNIAGALAQQKLTRAIISALDIANIPYKWLDSRDKKYTNWMDKPEDDYELETFAKGISWTINGKHRTLMYNITVPLVKKNVDICLFNCEPEIYTPQKVHQQPEKYLLLGELKGGIDPAGADEHWKTANTALTRIRNKFSEKGLSPKTIFIGAAIEHSMAEEIWDQLQSGSLTNSANLTKTEQVGSLCRWIINI
B9: BsoBI K209R: BsoBI restriction enzyme with mutation K209R (protein, UniProt P70985 2-323, looked up, variant K209R)
Type II restriction enzyme …: B8 Type II restriction enzyme … with M94I, K208R
B10: BsoBI G123R: BsoBI restriction enzyme with mutation G123R (protein, UniProt P70985 2-323, looked up, variant G123R)
Type II restriction enzyme …: B8 Type II restriction enzyme … with M94I, G122R
B11: BsoBI D124Y: BsoBI restriction enzyme with mutation D124Y (protein, UniProt P70985 2-323, looked up, variant D124Y)
Type II restriction enzyme …: B8 Type II restriction enzyme … with M94I, D123Y
B12: BsoBI D212N: BsoBI restriction enzyme with mutation D212N (protein, UniProt P70985 2-323, looked up, variant D212N)
Type II restriction enzyme …: B8 Type II restriction enzyme … with M94I, D211N
B13: EcoRV Y72N: EcoRV restriction enzyme with mutation Y72N (protein, UniProt P04390 2-245, looked up, variant Y72N)
Type II restriction enzyme …: SLRSDLINALYDENQKYDVCGIISAEGKIYPLGSDTKVLSTIFELFSRPIINKIAEKHGYIVEEPKQQNHNPDFTLYKPSEPNKKIAIDIKTTYTNKENEKIKFTLGGYTSFIRNNTKNIVYPFDQYIAHWIIGYVYTRVATRKSSLKTYNINELNEIPKPYKGVKVFLQDKWVIAGDLAGSGNTTNIGSIHAHYKDFVEGKGIFDSEDEFLDYWRNYERTSQLRNDKYNNISEYRNWIYRGRK
B14: EcoRV D90N: EcoRV restriction enzyme with mutation D90N (two citations) (protein, UniProt P04390 2-245, looked up, variant D90N)
Type II restriction enzyme …: B13 Type II restriction enzyme … with N71Y, D89N
B15: EcoRV K92A: EcoRV restriction enzyme with mutation K92A (protein, UniProt P04390 2-245, looked up, variant K92A)
Type II restriction enzyme …: B13 Type II restriction enzyme … with N71Y, K91A
B16: EcoRV P73A: EcoRV restriction enzyme with mutation P73A (two citations) (protein, UniProt P04390 2-245, looked up, variant P73A)
Type II restriction enzyme …: B13 Type II restriction enzyme … with N71Y, P72A
B17: EcoRV E45A: EcoRV restriction enzyme with mutation E45A (protein, UniProt P04390 2-245, looked up, variant E45A)
Type II restriction enzyme …: B13 Type II restriction enzyme … with E44A, N71Y
B18: EcoRV D74A: EcoRV restriction enzyme with mutation D74A (protein, UniProt P04390 2-245, looked up, variant D74A)
Type II restriction enzyme …: B13 Type II restriction enzyme … with N71Y, D73A
B19: EcoRV P73T: EcoRV restriction enzyme with mutation P73T (protein, UniProt P04390 2-245, looked up, variant P73T)
Type II restriction enzyme …: B13 Type II restriction enzyme … with N71Y, P72T
B20: EcoRV D74E: EcoRV restriction enzyme with mutation D74E (protein, UniProt P04390 2-245, looked up, variant D74E)
Type II restriction enzyme …: B13 Type II restriction enzyme … with N71Y, D73E
B21: EcoRV E45Q: EcoRV restriction enzyme with mutation E45Q (protein, UniProt P04390 2-245, looked up, variant E45Q)
Type II restriction enzyme …: B13 Type II restriction enzyme … with E44Q, N71Y
B22: EcoRV K92R: EcoRV restriction enzyme with mutation K92R (protein, UniProt P04390 2-245, looked up, variant K92R)
Type II restriction enzyme …: B13 Type II restriction enzyme … with N71Y, K91R
B23: EcoRV K92Q: EcoRV restriction enzyme with mutation K92Q (protein, UniProt P04390 2-245, looked up, variant K92Q)
Type II restriction enzyme …: B13 Type II restriction enzyme … with N71Y, K91Q
B24: EcoRV K92E: EcoRV restriction enzyme with mutation K92E (protein, UniProt P04390 2-245, looked up, variant K92E)
Type II restriction enzyme …: B13 Type II restriction enzyme … with N71Y, K91E
B25: EcoRV D74N: EcoRV restriction enzyme with mutation D74N (protein, UniProt P04390 2-245, looked up, variant D74N)
Type II restriction enzyme …: B13 Type II restriction enzyme … with N71Y, D73N
B26: EcoRV D90A: EcoRV restriction enzyme with mutation D90A (protein, UniProt P04390 2-245, looked up, variant D90A)
Type II restriction enzyme …: B13 Type II restriction enzyme … with N71Y, D89A
B27: EcoRV E45D: EcoRV restriction enzyme with mutation E45D (protein, UniProt P04390 2-245, looked up, variant E45D)
Type II restriction enzyme …: B13 Type II restriction enzyme … with E44D, N71Y
B28: EcoRV D90T: EcoRV restriction enzyme with mutation D90T (protein, UniProt P04390 2-245, looked up, variant D90T)
Type II restriction enzyme …: B13 Type II restriction enzyme … with N71Y, D89T
B29: EcoRV I91L: EcoRV restriction enzyme with mutation I91L (protein, UniProt P04390 2-245, looked up, variant I91L)
Type II restriction enzyme …: B13 Type II restriction enzyme … with N71Y, I90L

System: nucleic acid recognition or cleavage site
Conditions: mutant restriction enzyme relative to wild type; cited from earlier work

| Molecule | % of WT cleavage activity |
| --- | --- |
| B1 | 0.1% and 1% |
| B2 | 0.1% |
| B3 | 1% |
| B4 | <0.1% |
| B5 | 1% |
| B6 | 1% |
| B7 | 1% |
| B8 | <0.1% |
| B9 | <0.1% |
| B10 | <0.1% |
| B11 | <0.1% |
| B12 | <0.1% |
| B13 | <0.1% |
| B14 | 0% |
| B15 | <0.1% |
| B16 | <0.1% and 1% |
| B17 | <0.1% |
| B18 | 0% |
| B19 | 0% |
| B20 | 0% |
| B21 | <0.3% |
| B22 | 0% |
| B23 | 0% |
| B24 | <0.1% |
| B25 | 1.5% |
| B26 | 0% |
| B27 | <0.3% |
| B28 | 0% |
| B29 | <0.1% |
